Publication PMC8125234, “Cardiolipin Stabilizes and Increases Catalytic Efficiency of Carnitine Palmitoyltransferase II and Its Variants S113L, P50H, and Y479F” (International Journal of Molecular Sciences, 2021)

B1: CPT II variant P50H (Homo sapiens; P50H) (protein)
chain: SAGSGPGQYLQRSIVPTMHYQDSLHRLPIPKLEDTIRRYLSAQKPLLNDGQFRKTEQFCKSFENGIGKELHEQLVALDKQNKHTSYISGPWFDMYLSARDSVVLNFNPFMAFNPDPKSEYNDQLTRATNMTVSAIRFLKTLRAGLLEPEVFHLNPAKSDTITFKRLIRFVPSSLSWYGAYLVNAYPLDMSQYFRLFNSTRLPKPSRDELFTDDKARHLLVLRKGNFYIFDVLDQDGNIVSPSEIQAHLKYILSDSSPAPEFPLAYLTSENRDIWAELRQKLMSSGNEESLRKVDSAVFCLCLDDFPIKDLVHLSHNMLHGDGTNRWFDKSFNLIIAKDGSTAVHFEHSWGDGVAVLRFFNEVFKDSTQTPAVTPQSQPATTDSTVTVQKLNFELTDALKTGITAAKEKFDATMKTLTIDCVQFQRGGKEFLKKQKLSPDAVAQLAFQMAFLRQYGQTVATYESCSTAAFKHGRTETIRPASVYTKRCSEAFVREPSRHSAGELQQMMVECSKYHGQLTKEAAMGQGFDRHLFALRHLAAAKGIILPELYLDPAYGQINHNVLSTSTLSSPAVNLGGFAPVVSDGFGVGYAVHDNWIGCNVSSYPGRNAREFLQCVEKALEDMFDALEGKSIKS
notes: made in house; host or cells: Escherichia coli BL21Gold DE

Tests used:
CPT II WT = test system: CPT II WT; parameters: method as in PMID 26477380; conditions: cited from earlier work
CPT II S113L = test system: CPT II S113L; parameters: method as in PMID 27123472; conditions: in vitro; cited from earlier work
[1] = Thermosensitivity of enzyme activity of recombinant CPT II enzymes (activity half-life after incubation); assay type: physicochemical; conditions: 30 °C; 1 mg/mL enzyme
Protocol: To evaluate the enzyme behavior under different temperature conditions that are relevant under physiological conditions, we chose 30 (cold), 37 (normal), 40 (moderate fever) and 42 °C (high fever) for the experiments. The enzyme variants were expressed recombinantly in E. coli, carried a N-terminal histidine-tag and were purified by standard chromatography in the presence of a detergent (for experimental details, see Section 4.1 and Section 4.2). The impact of temperature was investigated by incubating purified CPT II variants at appropriate temperatures and determining their enzymatic activity after defined incubation periods. The enzyme assay was based on an adaptation of Rufer et al. for the transfer reaction of the palmitic acid from palmitoyl-CoA to L-carnitine (see Section 4.3).
Before activity measurements, the storage buffer of the enzymes was replaced with assay buffer (50 mM KH2PO4, 120 mM KCl, 1 mM EDTA-Na4) using vivaspin turbo 4 tubes (Satorius Stedim biotech GmbH, Göttingen, Germany) at 4 °C. […] After that, the protein concentration was determined using bicinchoninic acid (BCA) protein assay kit (Thermo Fisher Scientific GmbH, Berlin, Germany). […] The reverse reaction of CPT II was detected with the enzyme activity assay. […] The released CoA was then detected by the reaction of the free thiol group with DTNB, forming 5-mercapto-(2-nitrobenzoic acid). […]

[2] = nanoDSF thermostability of recombinant CPT II enzymes in assay buffer; assay type: physicochemical; conditions: assay buffer; 1 mg/mL protein; nanoDSF
Protocol: The protein stability was investigated applying nano differential scanning fluorimetry (nanoDSF) using a protein concentration of 1 mg/mL in assay buffer. […] The heating rate has been set to 1 °C per min. A heating ramp from 15 to 95 °C was determined. The nanoDSF data were obtained using a Prometheus NT.48 device. First derivatives were calculated using PR.ThermControl software (NanoTemper Technologies GmbH, Munich, Germany). Experiments were performed at least three times independently as double determination.

[3] = Onset of aggregation by scattered light back reflection during heating ramp; assay type: physicochemical; conditions: assay buffer; heating ramp 15 °C to 80 °C
Protocol: Supplementary materials can be found at https://www.mdpi.com/article/10.3390/ijms22094831/s1, Figure S1: Scattered light back reflection as measure for aggregation during the heating ramp from 15 °C to 80 °C of CPT II WT (black) and the variants P50H (red), S113L (blue) and Y479F (green) in assay buffer (magenta). The light scattering data were obtained simultaneously with nanoDSF data using the back reflection technology in a Prometheus NT.48 device. The unfolding of proteins leads to display of hydrophobic regions of the protein on the surface, which is followed by hydrophobic interaction of the protein molecules resulting in aggregation events. These aggregates are then detected via light scattering. […] The data allow the detection of onset of aggregation (Tagg) which differs clearly among the variants. The Tagg for WT is 38 °C, Y479F is 37 °C, S113L is 35 °C and P50H is 32 °C. […] Figure S2: The first derivatives of the transition curves of WT and the variants resulting from the ratio 350/330 nm were plotted against the temperature. The black, red, blue and green solid lines show the curves of WT and variants P50H, S113L and Y479F measured in assay buffer, respectively. The black, red, blue and green dashed lines show the maxima of the values of the first derivatives of the ratio 350 nm/330 nm of WT and variants P50H, S113L and Y479F, respectively. Figure S3: The effect of amino acid exchange in absence and presence of n-octyl-β-d-glucopyranoside (β-OG) on the stability of CPT II (1 mg/mL) assessed by nanoDSF. The TM of WT (37 °C) in buffer was used as reference value (ΔTM = 0 °C) to determine the ΔTM for the variants and the ΔTM for WT and variants in presence of β- OG. Error bars are SD derived from three independent experiments. Table S1. Comparison of the mean values of the half-lives (t1/2) of CPT II WT and the variants at 30 °C with the half-lives at 37, 40 or 42 °C. The differences of the half-lives for each CPT II enzyme between 37 and 40 or 42 °C as well as 40 and 42 °C are not significant. Number of experiments for each variant (n ≥ 3). Table S2. Comparison of the mean values of the half-lives (t1/2) between CPT II WT and the variants Y479F, S113L and P50H at 30, 37, 40 or 42 °C. n ≥ 3. Table S3. […] Comparison of the ∆TM-values of CPT II WT and the variants Y479F, S113L and P50H in buffer or in presence of 0.25 mM cardiolipin or 1% n-octyl-β-d-glucopyranoside (β-OG) assessed by nanoDSF (n ≥ 3). […] Comparison of the transition temperatures (TM) of WT and the variants Y479F, S113L and P50H in buffer with of 0.25 mM cardiolipin or 1% n-octyl-β-d-glucopyranoside (β-OG) assessed by nanoDSF (n ≥ 3). […]

[4] = substrate: C[N+](C)(C)C[C@H](O)CC(=O)[O-]; experiment: Determination of the kinetic parameters kcat and KM; assay type: biochemical, human; conditions: other: P50H, L-carnitine varied, absence of CL, 25 °C
Protocol: Before activity measurements, the storage buffer of the enzymes was replaced with assay buffer (50 mM KH2PO4, 120 mM KCl, 1 mM EDTA-Na4) using vivaspin turbo 4 tubes (Satorius Stedim biotech GmbH, Göttingen, Germany) at 4 °C. The pH of assay buffer was adjusted with KOH to 7.4. The storage buffer was diluted at least 1:500 in assay buffer. In addition, before each experimental set up, the protein samples were centrifuged at 16,000× g for 5 min at 4 °C to remove any micro-aggregates. After that, the protein concentration was determined using bicinchoninic acid (BCA) protein assay kit (Thermo Fisher Scientific GmbH, Berlin, Germany). The enzyme activity of recombinant CPT II was performed following Rufer et al. with modifications described elsewhere. […] After pre-conditioning the mixture to 25 °C for 2 min, the reaction was started by adding 15 nM of recombinant enzyme. The reverse reaction of CPT II was detected with the enzyme activity assay. CPT II catalyzed the transfer of fatty acid residue from Pal-CoA to L-carnitine with release of CoA and Pal-carnitine. The released CoA was then detected by the reaction of the free thiol group with DTNB, forming 5-mercapto-(2-nitrobenzoic acid). This compound has a molar extinction coefficient of 13,600 M^−1 cm^−1 at a wavelength of 410 nm, and its formation was followed spectroscopically. […] The slope of the progress curve was used to determine the reaction velocity.
It is assumed that the reaction catalyzed by CPT II represents a ping-pong mechanism or compulsory order ternary-complex mechanism.
The kinetic parameters were determined by evaluating the obtained v/S characteristic according to the Michaelis–Menten Equation (1). The […] kcat was calculated using Equation (2):(1) v=Vmax∗[S]/KM+[S] (2) kcat=Vmax/cenzyme

Molecule | Inhibition by malonyl-CoA (CPT II WT) | Inhibition by malonyl-CoA (CPT II S113L) | Time to complete loss of activity [1] | TM in Buffer [2] | Onset of aggregation (Tagg) [3] | Km [4] | kcat [4] | kcat/Km [4]
CC(C)(COP(=O)(O)OP(=O)(O)OC[C@H]1O[C@@H](n2cnc3c(N)ncnc32)[C@H](O)[C@@H]1OP(=O)(O)O)[C@@H](O)C(=O)NCCC(=O)NCCSC(=O)CC(=O)O [malonyl-CoA, Malonyl-CoA] | not inhibited | abnormal enzyme inhibition |  |  |  |  |  | 
B1 |  |  | ≤ 25 min | 26.2 ± 0.3 °C | 32 °C | 12.8 ± 2.7 mM | 138 ± 4.9 s⁻¹ | 10800 ± 2600 M⁻¹ s⁻¹
